What was measured:
[1] = test system: maize tissue pools (tassel, ear, leaf, root, stem); test: siRNA profiling microarray assay of mts-siRNA sequences across maize tissues; conditions: for 01DKD2 V8-V9 Tassel relative signal value: germplasm 01DKD2, V8-V9 tassel; for 01DKD2 V10-V12 Tassel relative signal value: germplasm 01DKD2, V10-V12 tassel; for 01DKD2 Other Tissue relative signal value: germplasm 01DKD2, combined signals from other tissue; for LH244 V8-V9 Tassel relative signal value: germplasm LH244, V8-V9 tassel; for LH244 V10-V12 Tassel relative signal value: germplasm LH244, V10-V12 tassel; for LH244 Other Tissue relative signal value: germplasm LH244, combined signals from other tissue
In short: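 Total RNA from LH244 or 01DKD2 inbred maize tissue pools hybridized to microfluidic chips with triplicate complementary probes for 1,200 mts-siRNAs. Signals background-subtracted and normalized, reported as relative values with standard error. Differential expression by t-test, p<0.05.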

[2] = test system: transgenic maize R0 plants (double copy events); test: R0 plant greenhouse glyphosate spray: vegetative tolerance and induced male sterility; type: in vivo; conditions: for % Vegetative Tolerant / % Vegetative Tolerance: glyphosate 0.75 lb ae/acre at V5 then V8; for % Vegetative Tolerant: <=10% injury 7 days after V5 spray
Method: Transformation vectors containing the recombinant DNA constructs were used with an Agrobacterium-based transformation method and maize immature embryos and techniques known in the art. Leaf samples of R0 plants were collected and molecular analysis was conducted to select transgenic plants containing a single copy (one insertion) or a double copy (two independent insertions) of the recombinant DNA construct and no presence of vector backbone. Single copy events were not sprayed with glyphosate and were selfed and advanced for R1 seed collection, while double copy events were used for R0 glyphosate spray to assess vegetative tolerance and induced male sterility. Transgenic plants that were not sprayed with glyphosate had normal anthesis, normal pollen shedding, and normal pollen development as determined by Alexandar staining and microscopic observation.
Double copy R0 events were used in testing to approximate a single copy homozygous event. Plants were sprayed with glyphosate at two different growth stages to determine if the presence of the mts-siRNA target element in the recombinant DNA construct provided vegetative glyphosate tolerance and glyphosate-induced tassel sterility. The plants were sprayed in a greenhouse with 1× glyphosate (0.75 lb ae/acre) applied at the V5 stage followed by 1× glyphosate (0.75 lb ae/acre) applied at the V8 stage. Seven days after the V5 stage glyphosate application, plants were scored for vegetative injury with scores of ≦10% injury considered as showing vegetative glyphosate tolerance (% Vegetative Tolerant). Male sterility was measured in two ways. […] Anthers were then collected and dissected to microscopically observe pollen development. Anthers for each event were tested for no viable pollen grains produced as detected by Alexandar staining under microscopic observation and scored as not producing any viable pollen (% No Pollen). In plants not sprayed with glyphosate, tassel development, anther extrusion, and pollen development were normal.
The mts-siRNA target elements were tested in multiple transformation vector configurations. Each transformation vector was used to produce multiple R0 plants with each R0 plant representing a unique transgenic event made using the same transformation vector. Data for three different transformation vector configurations are provided as Tables 11 and 12.

[3] = vector configuration A, no anther extrusion up to S90+12 after V8 glyphosate
[4] = vector configuration A, no viable pollen by Alexandar staining

Row | Molecule | 01DKD2 V8-V9 Tassel relative signal value [1] | 01DKD2 V10-V12 Tassel relative signal value [1] | 01DKD2 Other Tissue relative signal value [1] | LH244 V8-V9 Tassel relative signal value [1] | LH244 V10-V12 Tassel relative signal value [1] | LH244 Other Tissue relative signal value [1] | % Completely Male-sterile [2, 3] | % No Pollen [2, 4] [%] | also measured
1 | SEQ ID NO: 33: mts-siRNA sequence aligning to cDNA SEQ ID NO: 18 (AGGGTGAATCGGATGTTGAGGTGG; expressed or natural sequence) | 4.5 | 648.5 | 2.8 | 111.5 | 1032.7 | 17.8 | – | – | –
2 | SEQ ID NO: 51: mts-siRNA sequence aligning to cDNA SEQ ID NO: 19 (TGCCGAAGTGTGTCGTGACATTGG; expressed or natural sequence) | 24.5 | 275.5 | 40 | 158 | 287 | 34.3 | – | – | –
3 | SEQ ID NO: 83: mts-siRNA sequence aligning to cDNA SEQ ID NO: 22 (CAAGGCAAGAAGGTGCTT; expressed or natural sequence) | 2 | 253.5 | 1.5 | 173 | 303 | 2.5 | – | – | –
4 | SEQ ID NO: 48: mts-siRNA sequence aligning to cDNA SEQ ID NO: 19 (AAAGTAGCTAACGACCACACCACC; expressed or natural sequence) | 9.5 | 470.5 | 1 | 221 | 720.3 | 4.8 | – | – | –
5 | SEQ ID NO: 58: mts-siRNA sequence aligning to cDNA SEQ ID NO: 20 (CGAGGTACCAACTAACATCGGT; expressed or natural sequence) | 88.5 | 327 | 2 | 215.5 | 349 | 0.7 | – | – | –
6 | SEQ ID NO: 13: recombinant mts-siRNA target element sequence (nucleic acid, chemistry not fully specified; the letters are possibly those of the target site) DNA: ACGTGATAACTTCTATGCTGGCTGTGATTGCTAGTTGAAGAAAAGAATAGATATGGTGACATCAAGTTTCCACTGCGTGACG | – | – | – | – | – | – | none | 0 | % Vegetative Tolerant ([2]; vector configuration A, listed as 13): 100%; % Completely Male-sterile ([2]; vector configuration A, no anther extrusion up to S90+12 after V8 glyphosate, listed as 13): 0%
7 | SEQ ID NO: 14: recombinant mts-siRNA target element sequence (nucleic acid, chemistry not fully specified; the letters are possibly those of the target site) DNA: CCCAACGTGCATATCGCCATCCTCTGCTACGAGGGAATGTCATTGGTCGATGAGATGAGGGTGAATCGGATGTTGAGGTGGCACGATAGTTAAGGCGCAAGGGTAT | – | – | – | – | – | – | none | 0 | % Vegetative Tolerant ([2]; vector configuration A, listed as 14): 90%; % Completely Male-sterile ([2]; vector configuration A, no anther extrusion up to S90+12 after V8 glyphosate, listed as 14): 0%
8 | SEQ ID NO: 15: recombinant mts-siRNA target element sequence (nucleic acid, chemistry not fully specified; the letters are possibly those of the target site) DNA: TCGTCCAAACGTGACCGTGTGGCTAGAAGCAGAGGATGGCGATATGCACGTTATGCTTTCCTAGACTCTCACTGTAGTGG | – | – | – | – | – | – | none | 0 | % Vegetative Tolerant ([2]; vector configuration A, listed as 15): 90%; % Completely Male-sterile ([2]; vector configuration A, no anther extrusion up to S90+12 after V8 glyphosate, listed as 15): 0%
9 | SEQ ID NO: 2: mts-siRNA target element, single nucleotide change (T69A) relative to SEQ ID NO: 1 (nucleic acid) DNA: AGACGACGACCGTGCATGGTGATGAATCACAGACGACGAACACGCATGTCGCATCGCCGTCCTCTTTGAATCACACAGCATCACCTTCTTCGCTCTACTACTCCCCCGAGCAATCACCGACCAATAACACCAACCATCAACCTCCCCCGTCGCCGCCGCCTTCACCGTCCTCCCCTCACACCATAGAACTGCAAATGTCCG | – | – | – | – | – | – | – | 82 | tassel male sterility and pollen by Alexandar stain ([2]; double copy R0 events with SEQ ID NO: 2, glyphosate 0.75 lb ae/acre at V5 then V8): very few aborted pollen grains or no pollen grains were detected; % Vegetative Tolerant ([2]; vector configuration A, listed as 2): 100%; % Completely Male-sterile ([2]; vector configuration A, no anther extrusion up to S90+12 after V8 glyphosate, listed as 2): 82%
10 | SEQ ID NO: 9: reverse complement of mts-siRNA target element, 99% identity to positions 191 to 490 of cDNA SEQ ID NO: 22 (nucleic acid, Zea mays) DNA: GGACAACAAGCACCTTCTTGCCTTGCAAGGCCTCCCTTCCCTATGGTAGCCACTTGAGTGGATGACTTCACCTTAAAGCTATTGATTCCCTAAGTGCCAGACATAATAGGCTATACATTCTCTCTGGTGGCAACAATGAGCCATTTTGGTTGGTGTGGTAGTCTATTATTGAGTTTTTTTTGGCACCGTACTCCCATGGAGAGTAGAAGACAAACTCTTCACCGTTGTAGTCGTTGATGGTATTGGTGGTGACGACATCCTTGGTGTGCATGCACTGGTGAGTCACTGTTGTACTCGGCG | – | – | – | – | – | – | – | 0 | % Vegetative Tolerant ([2]; vector configuration A, listed as 9): 100%; % Completely Male-sterile ([2]; vector configuration A, no anther extrusion up to S90+12 after V8 glyphosate, listed as 9): 40%
11 | SEQ ID NO: 16: recombinant mts-siRNA target element sequence (nucleic acid) DNA: GACAACAAGCACCTTCTTGCCTTGCAGTATTGGTGGTGACGACATCCTTGGTGTGCATGCACTGGTGAGTCACTGTTGTACGTGATAACTTCTATGCTGGCTGTGATTGCTAGTTGAAGAAAAGAATAGATATGGTGACATCAAGTTTCCACTGCGTGACGCCAACGTGCATATCGCCATCCTCTGCTACGAGGGAATGTCATTGGTCGATGAGATGAGGGTGAATCGGATGTTGAGGTGGCACGATAGTTAAGGCGCAAGGGT | – | – | – | – | – | – | 50% | 0 | % Vegetative Tolerant ([2]; vector configuration A): 80%
12 | SEQ ID NO: 3: mts-siRNA target element, nucleotide positions 239 to 433 of cDNA SEQ ID NO: 18 (nucleic acid, Zea mays) DNA: TCTAGCCACACGGTCACGTTTGGACGACCAATAATAGGCTTGCAACCCTTCAAATTGTGTCCATCAGCTTCCCAACGTGCATATCGCCATCCTCTGCTTCGTGTCCCATGTCACCACCCCCACTCTTCCTCTTTACATGCAATGCAAATAAAGCAGATCCAACGTGGATGAGGGTGAATCGGATGTTGAGGTGGG | – | – | – | – | – | – | 10% | 0 | % Vegetative Tolerant ([2]; vector configuration A): 90%
13 | SEQ ID NO: 12: recombinant mts-siRNA target element sequence (nucleic acid) DNA: AGACGACGACCGTGCATGGTGATGAATCACAGACGACGAACACGCATGTCGCATCGCCGTCCTCTCACACCATAGAACTGCAAATGTCCGCTCTTCACCGTTGTAGTCGTTGATGGTATTGGTGGTGACGACATCCTTGGTGTGCATGCACTGGTGAGTCACTGTTGTAC | – | – | – | – | – | – | – | – | % Completely Male-sterile ([2]; vector configuration B): 50%; % No Pollen ([2]; vector configuration B): 20%; % Vegetative Tolerance ([2]; vector configuration B): 100%; % Completely Male-sterile ([2]; vector configuration C): 23%; % No Pollen ([2]; vector configuration C): 0%; % Vegetative Tolerance ([2]; vector configuration C): 87%
